B1: PlyCA, the catalytic subunit of the endolysin PlyC (enzyme, UniProt Q7Y3F1 1-465, looked up)
chain: MSKKYTQQQYEKYLAQPANNTFGLSPQQVADWFMGQAGARPVINSYGVNASNLVSTYIPKMQEYGVSYTLFLMYTVFEGGGAGNWINHYMYDTGSNGLECLEHDLQYIHGVWETYFPPALSAPECYPATEDNAGALDRFYQSLPGRTWGDVMIPSTMAGNAWVWAYNYCVNNQGAAPLVYFGNPYDSQIDSLLAMGADPFTGGSITGDGKNPSVGTGNATVSASSEANREKLKKALTDLFNNNLEHLSGEFYGNQVLNAMKYGTILKCDLTDDGLNAILQLIADVNLQTNPNPDKPTVQSPGQNDLGSGSDRVAANLANAQAQVGKYIGDGQCYAWVGWWSARVCGYSISYSTGDPMLPLIGDGMNAHSIHLGWDWSIANTGIVNYPVGTVGRKEDLRVGAIWCATAFSGAPFYTGQYGHTGIIESWSDTTVTVLEQNILGSPVIRSTYDLNTFLSTLTGLITFK
B2: PlyCB, the cell wall binding subunit of the endolysin PlyC (PlyCB CBD, an octamer) (natural protein)
chain: MSKINVNVENVSGVQGFLFHTDGKESYGYRAFINGVEIGIKDIETVQGFQQIIPSINISKSDVEAIRKAMKK
notes: PlyCB, 8 kDa subunit of the streptococcal bacteriophage endolysin PlyC; Above about 74 °C in PBS the octamer is said to dissociate reversibly into a monomeric intermediate state; also called PlyCB octamer; PlyCB subunit; source: also as a subunit of the purified recombinant PlyC holoenzyme

Data set [1] deals with B2. Description: cell-based or functional assay.
Data set [2] deals with the molecule itself. Description: cross-linking; PlyCB CBD 1 mg/mL in PBS heated 10 min at temperatures up to 74.4 °C, amine cross-linking with 1 mM BS3 for 10 min, quenched with Tris, cooled on ice, SDS-PAGE.
Data set [3] has as its target B1. As to the kind of experiment: SEC; 500 uL ice-cold 19.5 uM PlyCA added rapidly to 500 uL 15.6 uM PlyCB CBD in PBS heated to 75 °C, cooled on ice 5 min, centrifuged, HiPrep 16/60 Sephacryl S-200 HR in PBS; the peak corresponding to native PlyC analysed by SDS-PAGE. To be noted: both partners purified. For orientation: Size exclusion chromatography separates by hydrodynamic size, large species first.

On to B1, for which, in data set [1], the “bacteriolytic activity toward S. pyogenes (turbidity reduction assay) of ice-cold PlyCA mixed about 1:1 with PlyCB CBD heated to 75 °C and then rapidly cooled, relative to native PlyC” value was 35 % of the relative bacteriolytic activity of native PlyC.

As to B2, the binding result in data set [2] and in data set [3] was “binds” in each case.
